Each block holds one molecule with its values, some of them ahead of it.
How the values were obtained:
XiaF = molecular target: T1, XiaF (Streptomyces sp. HKI0576, UniProt I7IIA9); assay: HPLC-HRMS biotransformation assay; assay type: biochemical; conditions: 100 uM substrate, 500 uM NADH, 50 uM FAD, flavin reductase XiaP, pH 8.0, 28 °C
T1 construct: full-length (Met1-Leu397), N-terminal His-tag (pET-28b, thrombin-cleavable; pET-26b with MHHHHHH for crystals); from E. coli; homotetramer

[1] = molecular target: His-tagged XiaF (44.5 kDa, from pXU520) (Streptomyces sp. HKI0576); assay: SEC; HiLoad 16/600 Superdex 200 prep grade; 20 mM Tris-HCl pH 8.0, 100 mM NaCl; calibrated with Gel Filtration Calibration Kits
[2] = molecular target: XiaF (recombinant, N-terminal histidine-tag, construct pET26b(+)-xiaF used for crystallization) (Streptomyces sp. HKI0576); assay: crystal structure; hanging drop vapour diffusion at 20 °C; XiaF apo (5LVU), with FADH2 (5LVW), with FADH2 and glycerol (5MR6); molecular replacement
[3] = molecular target: untagged XiaF (42.4 kDa, tag cleaved with thrombin) (Streptomyces sp. HKI0576); assay: SEC; HiLoad 16/600 Superdex 200 prep grade; 20 mM Tris-HCl pH 8.0, 100 mM NaCl; calibrated with Gel Filtration Calibration Kits
[4] = molecular target: the molecule itself; assay: SEC; HiLoad 16/600 Superdex 200 prep grade; 100 mM NaH2PO4, 100 mM Na2HPO4, 2% glycerol, pH 7.0

T1 sequence (I7IIA9 entry or part of it): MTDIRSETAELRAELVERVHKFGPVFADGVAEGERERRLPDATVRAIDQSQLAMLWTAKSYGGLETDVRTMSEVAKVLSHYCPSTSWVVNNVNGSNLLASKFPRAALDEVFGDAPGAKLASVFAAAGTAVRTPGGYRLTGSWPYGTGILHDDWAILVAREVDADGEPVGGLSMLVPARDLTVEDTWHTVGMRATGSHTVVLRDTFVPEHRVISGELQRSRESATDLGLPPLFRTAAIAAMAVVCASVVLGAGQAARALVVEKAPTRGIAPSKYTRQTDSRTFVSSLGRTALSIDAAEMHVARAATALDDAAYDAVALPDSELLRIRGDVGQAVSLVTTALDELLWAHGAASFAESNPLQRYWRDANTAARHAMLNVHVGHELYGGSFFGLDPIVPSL

Molecule: C=C1CC[C@@H]2[C@](C)(CC[C@H](O)[C@@]2(C)C(=O)O)[C@H]1Cc1c[nH]c2ccccc12 [compound 2, indosespene]
- HPLC-HRMS biotransformation assay (XiaF): we found that XiaP substantially increases the performance of XiaF

- stoichiometry N [1]: 4
Molecule: His-tagged XiaF (44.5 kDa, from pXU520) (enzyme)

- stoichiometry N [2]: 4
Molecule: XiaF (recombinant, N-terminal histidine-tag, construct pET26b(+)-xiaF used for crystallization) (enzyme)

- stoichiometry N [3]: 4
Molecule: untagged XiaF (42.4 kDa, tag cleaved with thrombin) (enzyme)

B1: His-tagged XiaP (enzyme, Streptomyces sp. HKI0576)
chain: MIDRETFVELMSGVCAPVTVVTTATADGRPHGSTVSSFTSLSLDPPLASFALDRGSGLLPHLHQGARVGVNILAAHQHALAASFARRCPGTGSKFDGITWTTRAGLPHLPDSAGWTAGRVERHVPGGDHVLLVISVEEAHSTPAAPLVYLRRSFGTYSGLPAGG
notes: XiaP, NADH:flavin oxidoreductase of Streptomyces sp; HKI0576; also called flavin reductase XiaP; flavoenzyme-reductase; source: E. coli BL21-CodonPlus(DE3)-RP (pET28c-xiaP), purified (Ni-NTA, SEC)
- stoichiometry N [4]: 2
